Here are results for 6 molecules from US20140348840A1 (Memorial Sloan Kettering, published 2014).

The target in assay [1] is T1, p300 (UniProt Q09472 2-2414, limits assumed).
T1 construct: The shRNAs used in Kasumi-1 cells are against human p300
The assay can be described thus: anti-Flag co-IP from 293T cells, Western blot for p300. How it is done:
(§1) After 36 hours the cells were lysed in RIPA buffer with 1 mM DTT and DNAse I 1 μg/mL and a proteinase inhibitor cocktail (Roche), and incubated on ice for 30 minutes. Nuclear extracts were prepared to examine the endogenous protein-protein interactions. Anti-Flag agarose (Sigma), anti-HA agarose (Pierce) or protein A/G agarose (Santa Cruz) was used in the immunoprecipitation assays. For western blot assays, protein samples were separated by electrophoresis on denaturing 3-8% or 4-12% premade polyacrylamide gels (Invitrogen) and blotted to PVDF membranes (Millipore).

Assay [2] concerns the target T1, p300. The assay can be described thus: anti-HA co-IP, Western blot for p300. How it is done:
as §1

The target in assay [3] is T1, p300. The assay can be described thus: in vitro binding assay with purified proteins.

T1 sequence (Q09472 2-2414 limits assumed): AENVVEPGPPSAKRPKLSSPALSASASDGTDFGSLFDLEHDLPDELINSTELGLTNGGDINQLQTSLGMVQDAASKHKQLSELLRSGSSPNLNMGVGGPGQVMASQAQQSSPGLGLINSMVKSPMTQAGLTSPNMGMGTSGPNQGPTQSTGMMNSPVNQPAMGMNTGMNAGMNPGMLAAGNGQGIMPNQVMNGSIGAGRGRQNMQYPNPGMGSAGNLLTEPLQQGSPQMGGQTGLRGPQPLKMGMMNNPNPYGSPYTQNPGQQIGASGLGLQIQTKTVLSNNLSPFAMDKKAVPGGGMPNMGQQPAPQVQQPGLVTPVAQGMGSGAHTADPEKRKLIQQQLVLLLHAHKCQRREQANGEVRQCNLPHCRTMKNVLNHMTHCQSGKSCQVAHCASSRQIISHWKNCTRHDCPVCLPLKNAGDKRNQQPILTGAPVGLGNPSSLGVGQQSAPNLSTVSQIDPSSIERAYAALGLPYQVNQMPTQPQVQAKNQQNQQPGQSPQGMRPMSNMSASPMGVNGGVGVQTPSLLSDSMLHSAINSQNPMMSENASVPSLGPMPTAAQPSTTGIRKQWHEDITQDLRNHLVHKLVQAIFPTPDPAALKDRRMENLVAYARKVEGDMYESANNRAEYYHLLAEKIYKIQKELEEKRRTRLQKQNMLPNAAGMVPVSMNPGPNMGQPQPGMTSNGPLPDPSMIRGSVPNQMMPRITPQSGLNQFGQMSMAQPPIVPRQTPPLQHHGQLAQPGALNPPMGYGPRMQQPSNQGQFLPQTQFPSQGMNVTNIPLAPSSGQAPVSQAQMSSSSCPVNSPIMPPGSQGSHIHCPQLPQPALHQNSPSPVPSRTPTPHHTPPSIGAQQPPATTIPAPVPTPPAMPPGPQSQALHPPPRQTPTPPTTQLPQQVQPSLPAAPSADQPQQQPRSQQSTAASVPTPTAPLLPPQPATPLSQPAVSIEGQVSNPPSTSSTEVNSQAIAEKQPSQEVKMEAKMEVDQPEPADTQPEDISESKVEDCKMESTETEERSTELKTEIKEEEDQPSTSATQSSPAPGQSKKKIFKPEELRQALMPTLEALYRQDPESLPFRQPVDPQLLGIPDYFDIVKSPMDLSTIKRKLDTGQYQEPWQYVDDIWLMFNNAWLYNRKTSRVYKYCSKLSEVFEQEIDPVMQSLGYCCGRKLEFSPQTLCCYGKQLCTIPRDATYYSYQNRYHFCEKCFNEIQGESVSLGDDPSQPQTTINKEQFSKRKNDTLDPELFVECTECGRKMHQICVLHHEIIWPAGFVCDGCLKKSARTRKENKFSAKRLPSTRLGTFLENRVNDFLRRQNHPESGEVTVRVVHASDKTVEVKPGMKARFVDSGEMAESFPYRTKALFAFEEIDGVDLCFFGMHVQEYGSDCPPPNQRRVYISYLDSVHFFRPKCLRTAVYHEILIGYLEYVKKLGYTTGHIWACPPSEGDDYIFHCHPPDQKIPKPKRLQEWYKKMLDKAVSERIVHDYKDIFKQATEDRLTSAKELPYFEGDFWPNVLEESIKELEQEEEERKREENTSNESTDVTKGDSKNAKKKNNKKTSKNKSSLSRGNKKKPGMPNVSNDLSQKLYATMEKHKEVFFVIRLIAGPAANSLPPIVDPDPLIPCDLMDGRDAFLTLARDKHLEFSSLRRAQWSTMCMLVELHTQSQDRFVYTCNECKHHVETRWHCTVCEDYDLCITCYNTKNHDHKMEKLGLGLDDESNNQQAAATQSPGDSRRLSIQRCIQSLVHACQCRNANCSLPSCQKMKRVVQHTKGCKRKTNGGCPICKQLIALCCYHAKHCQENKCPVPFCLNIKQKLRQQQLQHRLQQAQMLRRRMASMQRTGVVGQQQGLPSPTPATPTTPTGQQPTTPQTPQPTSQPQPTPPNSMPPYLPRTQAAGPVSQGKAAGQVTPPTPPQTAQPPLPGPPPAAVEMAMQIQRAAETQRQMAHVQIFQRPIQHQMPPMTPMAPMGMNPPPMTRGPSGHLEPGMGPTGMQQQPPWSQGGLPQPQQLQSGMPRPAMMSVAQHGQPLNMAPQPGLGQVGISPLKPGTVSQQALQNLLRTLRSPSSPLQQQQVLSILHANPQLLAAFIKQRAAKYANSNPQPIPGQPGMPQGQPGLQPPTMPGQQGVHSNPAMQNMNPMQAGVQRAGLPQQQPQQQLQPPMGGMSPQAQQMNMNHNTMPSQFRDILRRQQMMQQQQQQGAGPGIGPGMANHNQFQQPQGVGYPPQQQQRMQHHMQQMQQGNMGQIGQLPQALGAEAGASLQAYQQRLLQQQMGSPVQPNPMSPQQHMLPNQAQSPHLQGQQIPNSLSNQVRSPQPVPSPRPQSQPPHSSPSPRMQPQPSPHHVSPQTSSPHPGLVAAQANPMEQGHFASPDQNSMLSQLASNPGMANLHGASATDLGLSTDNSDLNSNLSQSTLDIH

B1: Flag-ETO-ΔNHR1 (other, human, UniProt Q06455 1-604, looked up)
chain: MISVKRNTWRALSLVIGDCRKKGNFEYCQDRTEKHSTMPDSPVDVKTQSRLTPPTMPPPPTTQGAPRTSSFTPTTLTNGTSHSPTALNGAPSPPNGLPHPTPPPPQHYRLDDMAIAHHYRDSYRHPSHRDLRDRNRPMGLHGTRQEEMIDHRLTDREWAEEWKHLDHLLNCIMDMVEKTRRSLTVLRRCQEADREELNYWIRRYSDAEDLKKGGGSSSSHSRQQSPVNPDPVALDAHREFLHRPASGYVPEEIWKKAEEAVNEVKRQAMTELQKAVSEAERKAHDMITTERAKMERTVAEAKRQAAEDALAVINQQEDSSESCWNCGRKASETCSGCNTARYCGSFCQHKDWEKHHHICGQTLQAQQQGDTPAVSSSVTPNSGAGSPMDTPPAATPRSTTPGTPSTIETTPR
notes: not shown: Flag tag
Regarding B1, the binding result with p300 [1] was “no binding”.

B2: Flag-AE-ΔNHR2 (other)
chain: MRIPVDASTSRRFTPPSTALSPGKMSEALPLGAPDAGAALAGKLRSGDRSMVEVLADHPGELVRTDSPNFLCSVLPTHWRCNKTLPIAFKVVALGDVPDGTLVTVMAGNDENYSAELRNATAAMKNQVARFNDLRFVGRSGRGKSFTLTITVFTNPPQVATYHRAIKITVDGPREPRNRTEKHSTMPDSPVDVKTQSRLTPPTMPPPPTTQGAPRTSSFTPTTLTNGTSHSPTALNGAPSPPNGFSNGPSSSSSSSLANQQLPPACGARQLSKLKRFLTTLQQFGNDISPEIGERVRTLVLGLVNSTLTIEEFHSKLQEATNFPLRPFVIPFLKANLPLLQRELLHCARLAKQNPAQYLAQHEQLLLDASTTSPVDSSELLLDVNENGKRRTPDRTKENGFDREPLHSEHPSKRPCTISPGQRYSPNNGLSYQPNGLPHPTPPPPQHYRLDDMAIAHHYRDSYRHPSHRDLRDRNRPMGLEDLKKGGGSSSSHSRQQSPVNPDPVALDAHREFLHRPASGYVPEEIWKKAEEAVNEVKRQAMTELQKAVSEAERKAHDMITTERAKMERTVAEAKRQAAEDALAVINQQEDSSESCWNCGRKASETCSGCNTARYCGSFCQHKDWEKHHHICGQTLQAQQQGDTPAVSSSVTPNSGAGSPMDTPPAATPRSTTPGTPSTIETTPR
notes: AML1-ETO lacking amino acids 481 to 547 (the NHR2 domain); also called AML1-ETO ΔNHR2; not shown: Flag tag at the N-terminus
On to B2, for which, in the assay with p300 [1], the binding result is “binds”.

B3: HA-AML1-ETO9a (other)
chain: MRIPVDASTSRRFTPPSTALSPGKMSEALPLGAPDAGAALAGKLRSGDRSMVEVLADHPGELVRTDSPNFLCSVLPTHWRCNKTLPIAFKVVALGDVPDGTLVTVMAGNDENYSAELRNATAAMKNQVARFNDLRFVGRSGRGKSFTLTITVFTNPPQVATYHRAIKITVDGPREPRNRTEKHSTMPDSPVDVKTQSRLTPPTMPPPPTTQGAPRTSSFTPTTLTNGTSHSPTALNGAPSPPNGFSNGPSSSSSSSLANQQLPPACGARQLSKLKRFLTTLQQFGNDISPEIGERVRTLVLGLVNSTLTIEEFHSKLQEATNFPLRPFVIPFLKANLPLLQRELLHCARLAKQNPAQYLAQHEQLLLDASTTSPVDSSELLLDVNENGKRRTPDRTKENGFDREPLHSEHPSKRPCTISPGQRYSPNNGLSYQPNGLPHPTPPPPQHYRLDDMAIAHHYRDSYRHPSHRDLRDRNRPMGLHGTRQEEMIDHRLTDREWAEEWKHLDHLLNCIMDMVEKTRRSLTVLRRCQEADREELNYWIRRYSDAEDLKKGGGSSSSHSRQQSPVNPDPVALD
notes: Alternatively spliced form of A-E with 575 amino acids, lacking NHR3 and NHR4; also called A-E9a; AE9a; not shown: HA tag (anti-HA antibody used for the IP)
B3: in the assay with p300 [2], the binding result was “binds”.

B4: AML1-ETO fusion protein (other)
chain: MRIPVDASTSRRFTPPSTALSPGKMSEALPLGAPDAGAALAGKLRSGDRSMVEVLADHPGELVRTDSPNFLCSVLPTHWRCNKTLPIAFKVVALGDVPDGTLVTVMAGNDENYSAELRNATAAMKNQVARFNDLRFVGRSGRGKSFTLTITVFTNPPQVATYHRAIKITVDGPREPRNRTEKHSTMPDSPVDVKTQSRLTPPTMPPPPTTQGAPRTSSFTPTTLTNGTSHSPTALNGAPSPPNGFSNGPSSSSSSSLANQQLPPACGARQLSKLKRFLTTLQQFGNDISPEIGERVRTLVLGLVNSTLTIEEFHSKLQEATNFPLRPFVIPFLKANLPLLQRELLHCARLAKQNPAQYLAQHEQLLLDASTTSPVDSSELLLDVNENGKRRTPDRTKENGFDREPLHSEHPSKRPCTISPGQRYSPNNGLSYQPNGLPHPTPPPPQHYRLDDMAIAHHYRDSYRHPSHRDLRDRNRPMGLHGTRQEEMIDHRLTDREWAEEWKHLDHLLNCIMDMVEKTRRSLTVLRRCQEADREELNYWIRRYSDAEDLKKGGGSSSSHSRQQSPVNPDPVALDAHREFLHRPASGYVPEEIWKKAEEAVNEVKRQAMTELQKAVSEAERKAHDMITTERAKMERTVAEAKRQAAEDALAVINQQEDSSESCWNCGRKASETCSGCNTARYCGSFCQHKDWEKHHHICGQTLQAQQQGDTPAVSSSVTPNSGAGSPMDTPPAATPRSTTPGTPSTIETTPR
notes: also called A-E; AE
Take B4: the binding result with p300 [3] is listed as “binds”.

B5: Flag-AE (Flag-tagged AML1-ETO) (other)
chain: B4 chain
notes: Expressed in 293T cells with BosNeo-p300; anti-Flag IP; not shown: Flag tag added at the 5' end of the construct (N-terminus)
In the case of B5, the binding result with p300 [1] is reported as “binds”.

B6: Flag-AE-ΔNHR1 (aa245-436) (other)
chain: MRIPVDASTSRRFTPPSTALSPGKMSEALPLGAPDAGAALAGKLRSGDRSMVEVLADHPGELVRTDSPNFLCSVLPTHWRCNKTLPIAFKVVALGDVPDGTLVTVMAGNDENYSAELRNATAAMKNQVARFNDLRFVGRSGRGKSFTLTITVFTNPPQVATYHRAIKITVDGPREPRNRTEKHSTMPDSPVDVKTQSRLTPPTMPPPPTTQGAPRTSSFTPTTLTNGTSHSPTALNGAPSPPNGFSHRDLRDRNRPMGLHGTRQEEMIDHRLTDREWAEEWKHLDHLLNCIMDMVEKTRRSLTVLRRCQEADREELNYWIRRYSDAEDLKKGGGSSSSHSRQQSPVNPDPVALDAHREFLHRPASGYVPEEIWKKAEEAVNEVKRQAMTELQKAVSEAERKAHDMITTERAKMERTVAEAKRQAAEDALAVINQQEDSSESCWNCGRKASETCSGCNTARYCGSFCQHKDWEKHHHICGQTLQAQQQGDTPAVSSSVTPNSGAGSPMDTPPAATPRSTTPGTPSTIETTPR
notes: also called AML1-ETO ΔNHR1; not shown: Flag tag at the N-terminus
For B6, the binding result with p300 [1] is “no binding”.
